# Target: COX4I1
# Test: AP-MS (FLAG affinity purification, protein intensity)
# Conditions: HEK293T transiently overexpressing FLAG-tagged COX5A; n = 3 biological replicates, mean ± SD; parent: est. 1.1e10; read off a plot
row,response,Substance
1,5e+09 intensity,"COX5A-FLAG, wild type (from UniProt P20674) Y80W"
2,6e+09 intensity,"COX5A-FLAG, wild type (from UniProt P20674) T79G"
3,2.5e+10 intensity,"COX5A-FLAG, wild type (from UniProt P20674) D81W"

# Reference: publication PMC13423832
